Values quoted from earlier work, collected in publication PMC6929323.

Target: UFD1L-NPLOC4 (Homo sapiens) (UniProt Q92890)
Assay: ITC

Chain of UniProt Q92890 (Q92890 whole entry, chain 1 of 2): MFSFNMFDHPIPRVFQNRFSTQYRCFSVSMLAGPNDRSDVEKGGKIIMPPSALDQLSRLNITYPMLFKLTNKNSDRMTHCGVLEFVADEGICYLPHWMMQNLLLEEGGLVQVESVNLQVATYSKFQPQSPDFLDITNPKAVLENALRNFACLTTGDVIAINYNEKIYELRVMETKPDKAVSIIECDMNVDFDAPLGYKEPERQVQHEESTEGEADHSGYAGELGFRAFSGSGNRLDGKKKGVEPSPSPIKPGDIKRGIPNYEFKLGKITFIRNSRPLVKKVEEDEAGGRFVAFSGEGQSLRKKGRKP
Chain of UniProt Q92890 (Q8TAT6 2-608, chain 2 of 2, further chain): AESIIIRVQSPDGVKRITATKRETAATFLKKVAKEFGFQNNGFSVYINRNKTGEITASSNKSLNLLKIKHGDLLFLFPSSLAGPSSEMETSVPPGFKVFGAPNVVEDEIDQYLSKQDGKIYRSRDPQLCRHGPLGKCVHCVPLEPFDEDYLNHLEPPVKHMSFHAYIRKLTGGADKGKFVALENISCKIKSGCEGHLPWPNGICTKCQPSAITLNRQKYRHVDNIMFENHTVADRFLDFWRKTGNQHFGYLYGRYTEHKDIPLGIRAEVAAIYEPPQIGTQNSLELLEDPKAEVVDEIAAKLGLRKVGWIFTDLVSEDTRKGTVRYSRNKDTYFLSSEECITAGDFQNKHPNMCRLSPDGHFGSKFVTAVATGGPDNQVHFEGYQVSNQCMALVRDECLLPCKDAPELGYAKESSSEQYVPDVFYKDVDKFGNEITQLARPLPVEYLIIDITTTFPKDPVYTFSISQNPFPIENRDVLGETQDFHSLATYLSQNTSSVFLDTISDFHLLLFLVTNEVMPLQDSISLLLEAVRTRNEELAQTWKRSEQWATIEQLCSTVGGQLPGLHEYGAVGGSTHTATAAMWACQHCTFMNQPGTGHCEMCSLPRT

- Kd: 1700 nM
Substance: p97 (from UniProt P55072)
